Assay: In vitro drug release from melt-extruded rods in isotonic phosphate buffer
Type: physicochemical
Conditions: rod-shaped samples, isotonic phosphate buffer pH 7.4, 37° C.; for Release Rate (ng of free acid Latanoprost/mg polymer drug conjugate/24 hours): continuous stirring, HPLC-UV
Description: Following in vitro release guidelines recommended by the International Organisation of Standardisation, rod-shaped samples prepared by melt extrusion, were suspended in wire baskets which were immersed in isotonic phosphate buffer (IPB), adjusted to pH 7.4 using orthophosphoric acid and containing 0.01% sodium azide as a preservative, and incubated at 37° C. with continuous stirring. Aliquots of the receptor solution were removed for analysis at predetermined time points until drug release from the polymer no longer increased.
The amount of prostaglandin drug released from the rods at the various time points was quantified by reverse phase high performance liquid chromatography (HPLC) with a UV absorbance detector and analyte separation was performed on a C18 column either isocratically or with a gradient system using a degassed mobile phase.
Using the above method, the rate of release of the prostaglandin drug latanoprost from various polymer-drug conjugates was determined.

Substance	Period of zero-order release	Release Rate (ng of free acid Latanoprost/mg polymer drug conjugate/24 hours)
Polyurethane of (Z)-1,3-dihydroxypropan-2-yl 7-((1R,2R,3R,5S)-3,5-dihydroxy-2-((R)-3-hydroxy-5-phenylpentyl)cyclopentyl)hept-5-enoate and DVDIP [Example 12]	61 days	637 ng of free acid Latanoprost/mg
Polyurethane of (Z)-1,3-dihydroxypropan-2-yl 7-((1R,2R,3R,5S)-3,5-dihydroxy-2-((R)-3-hydroxy-5-phenylpentyl)cyclopentyl)hept-5-enoate and ELDI [Example 10]	61 days	899 ng of free acid Latanoprost/mg
Polyurethane of (Z)-3-hydroxy-2-(hydroxymethyl)-2-methylpropyl 7-((1R,2R,3R,5S)-3,5-dihydroxy-2-((R)-3-hydroxy-5-phenylpentyl)cyclopentyl)hept-5-enoate and DVDIP [Example 16]	61 days	138 ng of free acid Latanoprost/mg

Reference: patent publication US20140120058A1, “POLYMER CONJUGATED PROSTAGLANDIN ANALOGUES” (POLYACTIVA PTY LTD, priority 2011, published 2014)
